Patent publication US20140044730A1 (Regeneron, published 2014)
Where two headings read alike, the source gives them in different places.

Columns and labels:
[1] = biological target: T1, human PCSK9 with a C-terminal myc-myc-hexahistidine tag (human, UniProt Q8NBP7 31-692, limits assumed); assay: SPR 25C, mAb captured;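 also: biacore CM4 surface bearing anti-human Fc antibody capturing the mAbs, PCSK9 binding and release rates fitted with a one-to-one model, KD and half-life derived from those rates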
T1 construct: also called hPCSK9-mmH; hPCSK9-mmh; not shown: C-terminal myc-myc-hexahistidine tag

[2] = biological target: T2, human PCSK9 with a C-terminal myc-myc hexahistidine tag and a D374Y mutation (human, UniProt Q8NBP7 31-692, limits assumed); assay: cell-based or functional assay
[3] = biological target: T3, recombinant cynomolgus monkey PCSK9 with a C-terminal myc-myc hexahistidine tag (cynomolgus monkey, UniProt A8T662 31-692 (Macaca nemestrina entry), limits assumed); assay: cell-based or functional assay
[4] = biological target: T1, human PCSK9 with a C-terminal …; assay: SPR 25C pH 7.2, mAb captured;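 also: biacore SPR, antibodies captured on anti-human Fc CM4 chip with PCSK9 flowed as analyte, rate constants from a one-to-one kinetic fit, KD and half-life derived from them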
Experimental: (§1) A Biacore CM4 sensor chip was derivatized with a monoclonal mouse anti-human Fc antibody to capture human antibodies. The histidine substitution variant anti-PCSK9 antibodies were captured onto the anti-human Fc sensor surface from culture medium after transient expression in Chinese hamster ovary (CHO) cells. […] Kinetic association (kₐ) and dissociation (kd) rate constants were determined by processing and fitting the data to a 1:1 binding model using Scrubber 2.0 curve fitting software. Binding dissociation equilibrium constants (KD) and dissociative half-lives (t_{1/2}) were calculated from the kinetic rate constants as: KD (M)=kd/kₐ; and t_{1/2} (min)=(In2/(60*kd).

[5] = biological target: T1, human PCSK9 with a C-terminal …; assay: SPR 25C pH 5.75, mAb captured;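 also: biacore surface with anti-human Fc antibody capturing the antibodies, PCSK9 as analyte, one-to-one kinetic fit, KD as kd over ka, half-life derived from kd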
Experimental: as §1

[6] = biological target: T1, human PCSK9 with a C-terminal …; assay: blocking ELISA pH 7.2, 500 pM hPCSK9-mmH vs coated hLDLR EGFA-hFc, exp #1
Text: (§2) The equilibrated sample solutions were then transferred to the LDLR EGFA-hFc coated plate prepared as described above.

[7] = biological target: T1, human PCSK9 with a C-terminal …; assay: blocking ELISA pH 7.2, 500 pM hPCSK9-mmH vs coated hLDLR EGFA-hFc, exp #2
Text: as §2

[8] = biological target: T1, human PCSK9 with a C-terminal …; assay: cell-based or functional assay
[9] = biological target: T1, human PCSK9 with a C-terminal …; assay: SPR 25C, purified mAb captured
Experimental: as §1
(§3) Also included in these experiments were several control/comparator antibodies. All measurements were taken at 25° C.

[10] = biological target: T1, human PCSK9 with a C-terminal …; assay: SPR 25C pH 7.4, purified mAb captured
Experimental: as §1
All measurements were taken at 25° C.

[11] = biological target: T1, human PCSK9 with a C-terminal …; assay: SPR 25C pH 6.0, purified mAb captured
Experimental: as §1, §3

[12] = biological target: T1, human PCSK9 with a C-terminal …; assay: blocking ELISA, hPCSK9-mmH vs coated hLDLR EGFA-hFc
Experimental: (§4) Briefly, hLDLR EGFA-hFc was coated at 2 μg/mL in PBS on a 96-well microtiter plate overnight at 4° C. followed by blocking with a solution of 0.5% (w/v) BSA in PBS.
(§5) The equilibrated sample solutions were then transferred to a LDLR EGFA-hFc coated plate.

[13] = biological target: T1, human PCSK9 with a C-terminal …; assay: blocking ELISA pH 7.2, 500 pM hPCSK9-mmH vs coated hLDLR EGFA-hFc
Experimental: as §4, §5

[14] = biological target: T1, human PCSK9 with a C-terminal …; assay: blocking ELISA pH 5.75, 500 pM hPCSK9-mmH vs coated hLDLR EGFA-hFc
Experimental: as §4, §5

[15] = biological target: T1, human PCSK9 with a C-terminal …; assay: cell-based or functional assay; remark: listed apart in the source
[16] = biological target: T2, human PCSK9 with a C-terminal myc-myc …; assay: cell-based or functional assay; remark: listed apart in the source
[17] = biological target: T3, recombinant cynomolgus monkey PCSK9 …; assay: cell-based or functional assay; remark: listed apart in the source
[18] = biological target: T1, human PCSK9 with a C-terminal …; assay: SPR (Biacore), 37 °C; antibody captured on anti-human Fc surface, hPCSK9-mmH injected (3.125-50 nM); association at pH 7.4, dissociation at pH 6.0
Experimental: (§6) A Biacore CM4 sensor chip was derivatized with a Fab′2 polyclonal anti-human Fc antibody to capture human antibodies. […] Dissociation (kd) rate constants were determined by processing and fitting the data using Scrubber version 2.0 curve fitting software. Dissociative half-lives (t_{1/2}) were calculated from the dissociation rate constants as: t_{1/2} (min)=(In2/kd)/60.

[19] = biological target: T1, human PCSK9 with a C-terminal …; assay: SPR (Biacore), 37 °C; antibody captured on anti-human Fc surface, hPCSK9-mmH injected (3.125-50 nM); association at pH 7.4, dissociation at pH 7.2
Experimental: as §6

[20] = biological target: T1, human PCSK9 with a C-terminal …; assay: SPR (Biacore), 37 °C; antibody captured on anti-human Fc surface, hPCSK9-mmH injected (3.125-50 nM); association at pH 7.4, dissociation at pH 7.4
Experimental: as §6

[21] = biological target: T1, human PCSK9 with a C-terminal …; assay: SPR (Biacore), 37 °C; antibody captured on anti-human Fc surface, hPCSK9-mmH injected (3.125-50 nM); association at pH 7.4, dissociation at pH 5.75
Experimental: as §6

[22] = biological target: T1, human PCSK9 with a C-terminal …; assay: SPR (Biacore), 37 °C; antibody captured on anti-human Fc surface, hPCSK9-mmH injected (3.125-50 nM); association at pH 7.4, dissociation at pH 6.0; remark: listed apart in the source
Experimental: (§7) All experiments were carried out at 37° C.
as §6

[23] = biological target: T1, human PCSK9 with a C-terminal …; assay: SPR (Biacore), 37 °C; antibody captured on anti-human Fc surface, hPCSK9-mmH injected (3.125-50 nM); association at pH 7.4, dissociation at pH 7.2; remark: listed apart in the source
Experimental: as §6

[24] = biological target: T1, human PCSK9 with a C-terminal …; assay: SPR (Biacore), 37 °C; antibody captured on anti-human Fc surface, hPCSK9-mmH injected (3.125-50 nM); association at pH 7.4, dissociation at pH 7.4; remark: listed apart in the source
Experimental: as §7, §6

[25] = biological target: T1, human PCSK9 with a C-terminal …; assay: SPR (Biacore), 37 °C; antibody captured on anti-human Fc surface, hPCSK9-mmH injected (3.125-50 nM); association at pH 7.4, dissociation at pH 5.75; remark: listed apart in the source
Experimental: as §7, §6

[26] = biological target: T1, human PCSK9 with a C-terminal …; assay: SPR 25C pH 7.2, mAb captured; pH 7.2 (neutral), 25 C
Experimental: as §1

KD ratio pH 5.75/pH 7.2 [1] | t½ ratio pH 5.75/pH 7.2 [1] | IC50, LDL uptake in HepG2 cells, 2 nM hPCSK9-D374Y-mmH [2] [nM] | IC50, LDL uptake in HepG2 cells, 50 nM MfPCSK9-mmH [3] [nM] | Kd [4] [nM] | t½ [4] [min] | Kd [5] [nM] | t½ [5] [min] | IC50 [6] [nM] | IC50, LDL uptake in HepG2 cells, 100 nM hPCSK9-mmH [8] [nM] | KD ratio pH 6.0/pH 7.4 [9] | ka ratio pH 6.0/pH 7.4 [9] | kd ratio pH 6.0/pH 7.4 [9] | t½ ratio pH 6.0/pH 7.4 [9] | Kd [10] [nM] | koff [10] [s⁻¹] | kon [10] [M⁻¹ s⁻¹] | t½ [10] [min] | Kd [11] [nM] | koff [11] [s⁻¹] | Binder | other results
– | – | – | – | – | – | – | – | – | 32 | 2.09 | 1.89 | 3.94 | 0.25 | 0.546 | 7.93e-05 | 145000 | 146 | 1.14 | 0.000313 | 300N(v2) (antibody, IgG4, V domains shown) VH: EMQLVESGGGLVQPGGSLRLSCAASGFTFSSHWMKWVRQAPGKGLEWVANINQDGSEKYYVDSVKGRFTISRDNAKNSLFLQMNSLRAEDTAVYYCARDIVLMVYDMDYYYYGMDVWGQGTTVTVSS VL: not shown | IC50, LDL uptake in HepG2 cells, 50 nM hPCSK9-mmH [15]: 10.3 nM; IC50, LDL uptake in HepG2 cells, 2 nM hPCSK9-D374Y-mmH [16]: 2 nM; IC50, LDL uptake in HepG2 cells, 50 nM MfPCSK9-mmH [17]: 15.7 nM; kon [11]: 274000 M⁻¹ s⁻¹; t½ [11]: 36.9 min; IC50 ratio (pH 5.75/pH 7.2) [12]: 1.2; IC50 [13]: 0.221 nM; IC50 [14]: 0.268 nM; t½ (dissociative half-life) [18]: 7.1 min; t½ (dissociative half-life) [19]: 46.2 min; t½ (dissociative half-life) [20]: 34.6 min; t½ (dissociative half-life) [21]: 7 min
25.5 | 0.01 | 2.1 | 19.9 | 2.27 | 16 | 57.8 | 0.2 | 0.166 | 37 | 14.8 | 1.94 | 28.8 | 0.03 | 1.82 | 0.000293 | 161000 | 39.4 | 27 | 0.00845 | VK-L30H (antibody, V domains shown, His variant of 300N) VH: EMQLVESGGGLVQPGGSLRLSCAASGFTFSSHWMKWVRQAPGKGLEWVANINQDGSEKYYVDSVKGRFTISRDNAKNSLFLQMNSLRAEDTAVYYCARDIVLMVYDMDYYYYGMDVWGQGTTVTVSS VL: not shown | IC50, LDL uptake in HepG2 cells, 50 nM hPCSK9-mmH [15]: 9 nM; IC50, LDL uptake in HepG2 cells, 2 nM hPCSK9-D374Y-mmH [16]: 3.3 nM; IC50, LDL uptake in HepG2 cells, 50 nM MfPCSK9-mmH [17]: 26.4 nM; kon [11]: 313000 M⁻¹ s⁻¹; t½ [11]: 1.4 min; IC50 ratio (pH 5.75/pH 7.2) [12]: 208; IC50 [13]: 0.209 nM; IC50 [14]: 43.4 nM; IC50 [7]: 0.198 nM; t½ (dissociative half-life) [22]: 0.4 min; t½ (dissociative half-life) [23]: 11.2 min; t½ (dissociative half-life) [24]: 10.6 min; t½ (dissociative half-life) [25]: 0.2 min
8.51 | 0.04 | 4.7 | 15.8 | 5.6 | 11 | 47.6 | 0.4 | 0.331 | – | – | – | – | – | – | – | – | – | – | – | VH-V104H (antibody, V domains shown, His variant of 300N) VH: EMQLVESGGGLVQPGGSLRLSCAASGFTFSSHWMKWVRQAPGKGLEWVANINQDGSEKYYVDSVKGRFTISRDNAKNSLFLQMNSLRAEDTAVYYCARDIVLMHYDMDYYYYGMDVWGQGTTVTVSS VL: not shown | –

Further lines, the binder ahead of its results:

Binder | KD ratio pH 5.75/pH 7.2 [1] | t½ ratio pH 5.75/pH 7.2 [1] | IC50, LDL uptake in HepG2 cells, 2 nM hPCSK9-D374Y-mmH [2] [nM] | IC50, LDL uptake in HepG2 cells, 50 nM MfPCSK9-mmH [3] [nM] | Kd [4] [nM] | t½ [4] [min] | Kd [5] [nM] | t½ [5] [min] | IC50 [6] [nM] | IC50, LDL uptake in HepG2 cells, 100 nM hPCSK9-mmH [8] [nM] | KD ratio pH 6.0/pH 7.4 [9] | ka ratio pH 6.0/pH 7.4 [9] | kd ratio pH 6.0/pH 7.4 [9] | t½ ratio pH 6.0/pH 7.4 [9] | Kd [10] [nM] | koff [10] [s⁻¹] | kon [10] [M⁻¹ s⁻¹] | t½ [10] [min] | Kd [11] [nM] | koff [11] [s⁻¹] | other results
Parental 300N (antibody, V domains shown, also called mAb 300N) VH: EMQLVESGGGLVQPGGSLRLSCAASGFTFSSHWMKWVRQAPGKGLEWVANINQDGSEKYYVDSVKGRFTISRDNAKNSLFLQMNSLRAEDTAVYYCARDIVLMVYDMDYYYYGMDVWGQGTTVTVSS VL: not shown | 1.15 | 0.26 | 1.2 | 10 | 0.865 | 48 | 0.999 | 13 | 0.226 | – | – | – | – | – | – | – | – | – | – | – | IC50 [7]: 0.153 nM
300N(v1) (antibody, IgG1, V domains shown) VH: EMQLVESGGGLVQPGGSLRLSCAASGFTFSSHWMKWVRQAPGKGLEWVANINQDGSEKYYVDSVKGRFTISRDNAKNSLFLQMNSLRAEDTAVYYCARDIVLMVYDMDYYYYGMDVWGQGTTVTVSS VL: not shown | – | – | – | – | – | – | – | – | – | 28 | 2.33 | 1.85 | 4.33 | 0.23 | 0.507 | 7.03e-05 | 139000 | 164 | 1.18 | 0.000304 | kon [11]: 257000 M⁻¹ s⁻¹; t½ [11]: 38 min; IC50 ratio (pH 5.75/pH 7.2) [12]: 1.4; IC50 [13]: 0.19 nM; IC50 [14]: 0.266 nM
VH-M114H (antibody, V domains shown, His variant of 300N) VH: EMQLVESGGGLVQPGGSLRLSCAASGFTFSSHWMKWVRQAPGKGLEWVANINQDGSEKYYVDSVKGRFTISRDNAKNSLFLQMNSLRAEDTAVYYCARDIVLMVYDMDYYYYGHDVWGQGTTVTVSS VL: not shown | – | – | – | – | – | – | – | – | – | – | – | – | – | – | – | – | – | – | – | – | Kd [26]: 386 nM; t½ [26]: 0 h
VH-Y112H (antibody, V domains shown, His variant of 300N) VH: EMQLVESGGGLVQPGGSLRLSCAASGFTFSSHWMKWVRQAPGKGLEWVANINQDGSEKYYVDSVKGRFTISRDNAKNSLFLQMNSLRAEDTAVYYCARDIVLMVYDMDYYYHGMDVWGQGTTVTVSS VL: not shown | 4.52 | 0.01 | 4.7 | 21.2 | 12.3 | 5 | 55.7 | 0.04 | 0.506 | – | – | – | – | – | – | – | – | – | – | – | –
